Assay results: PMC9082959, “Mechanism of Assembly of the Non-Covalent Spectrin Tetramerization Domain from Intrinsically Disordered Partners” (Journal of molecular biology, 2013)
Numbering of substitutions follows the chain as printed.

What was measured:
Test in all cases: ITC; β16β17 at 25–50 μM in the cell titrated with 15–20 injections to 2–2.5 eq of α0α1; one-site binding model; PBS (50 mM sodium phosphate, 150 mM NaCl, pH 7.04), 25 °C; mutants only against the wild-type partner
Details in all cases: both partners purified
β16β17 F11A = target: T1, β16β17 F11A (human, UniProt P11277 1898-2083, F2014A)
T1 construct: erythrocyte β-spectrin, human, residues 1898-2083 (β16β17); mutant of m2; also called F2014A; source: E. coli C41(DE3), purified (Ni2+ agarose, thrombin cleavage, gel filtration)
T1 sequence (looked up): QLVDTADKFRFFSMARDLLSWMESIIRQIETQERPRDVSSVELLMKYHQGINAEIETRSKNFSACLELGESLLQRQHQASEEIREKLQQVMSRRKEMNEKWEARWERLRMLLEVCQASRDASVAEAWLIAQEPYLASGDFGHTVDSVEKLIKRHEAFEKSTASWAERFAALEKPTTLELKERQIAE

β16β17 A18G = target: T2, β16β17 A18G (human, UniProt P11277 1898-2083, A2021G)
T2 construct: erythrocyte β-spectrin, human, residues 1898-2083 (β16β17); mutant of m2; also called A2021G; source: E. coli C41(DE3), purified (Ni2+ agarose, thrombin cleavage, gel filtration)
T2 sequence (looked up): T1 sequence (looked up) with A117F, A124G

β16β17 Y28L = target: T3, β16β17 Y28L (human, UniProt P11277 1898-2083, Y2031L)
T3 construct: erythrocyte β-spectrin, human, residues 1898-2083 (β16β17); mutant of m2; also called Y2031L; source: E. coli C41(DE3), purified (Ni2+ agarose, thrombin cleavage, gel filtration)
T3 sequence (looked up): T1 sequence (looked up) with A117F, Y134L

β16β17 L29A = target: T4, β16β17 L29A (human, UniProt P11277 1898-2083, L2032A)
T4 construct: erythrocyte β-spectrin, human, residues 1898-2083 (β16β17); mutant of m2; also called L2032A; source: E. coli C41(DE3), purified (Ni2+ agarose, thrombin cleavage, gel filtration)
T4 sequence (looked up): T1 sequence (looked up) with A117F, L135A

β16β17 F62A = target: T5, β16β17 F62A (human, UniProt P11277 1898-2083, F2065A)
T5 construct: erythrocyte β-spectrin, human, residues 1898-2083 (β16β17); mutant of m2; also called F2065A; source: E. coli C41(DE3), purified (Ni2+ agarose, thrombin cleavage, gel filtration)
T5 sequence (looked up): T1 sequence (looked up) with A117F, F168A

β16β17 Y28A = target: T6, β16β17 Y28A (human, UniProt P11277 1898-2083, Y2031A)
T6 construct: erythrocyte β-spectrin, human, residues 1898-2083 (β16β17); mutant of m2; also called Y2031A; source: E. coli C41(DE3), purified (Ni2+ agarose, thrombin cleavage, gel filtration)
T6 sequence (looked up): T1 sequence (looked up) with A117F, Y134A

B1: α0α1 (erythrocyte α-spectrin residues 2–163), wild type (domain or fragment, human, UniProt P02549 2-163, looked up)
chain: EQFPKETVVESSGPKVLETAEEIQERRQEVLTRYQSFKERVAERGQKLEDSYHLQVFKRDADDLGKWIMEKVNILTDKSYEDPTNIQGKYQKHQSLEAEVQTKSRLMSELEKTREERFTMGHSAHEETKAHIEELRHLWDLLLELTLEKGDQLLRALKFQQY
notes: synthetic gene (GenScript) in a modified pRSETA plasmid; also called α1α0; source: E. coli C41(DE3), purified (Ni2+ agarose, thrombin cleavage, gel filtration)
Question: For B1, which Ka (β16β17 F11A) is on record?
Answer: The Ka was 6000 M⁻¹.

Question: What about the Ka (β16β17 A18G) of the same binder?
Answer: Its Ka is 130000 M⁻¹.

Question: And the Ka (β16β17 Y28L)?
Answer: Its Ka is 170000 M⁻¹.

Question: What about the Ka (β16β17 L29A) of the same binder?
Answer: Its Ka is 290000 M⁻¹.

Question: And the Ka (β16β17 F62A)?
Answer: The Ka was 13000 M⁻¹.

Question: What about the Ka (β16β17 Y28A) of the same binder?
Answer: The Ka was 180000 M⁻¹.
